This is an account of results in patent US20200283536A1 (Pfizer, published 2020).

Like-named read-outs stand apart in the source and are kept apart here.

Test in all cases: cell-based or functional assay
Experiment [1] addresses T1, CD123 (alpha chain of the interleukin-3 receptor) (human, UniProt P26951 19-378).
For experiment [2], the target named is T1, CD123 (alpha chain of the interleukin-3 …). This is another data set of the same source.
Experiment [3] shares this target. The source holds these as a separate data set.
Experiment [4] has the same target. The source holds these as a separate data set.

T1 sequence (P26951 19-378): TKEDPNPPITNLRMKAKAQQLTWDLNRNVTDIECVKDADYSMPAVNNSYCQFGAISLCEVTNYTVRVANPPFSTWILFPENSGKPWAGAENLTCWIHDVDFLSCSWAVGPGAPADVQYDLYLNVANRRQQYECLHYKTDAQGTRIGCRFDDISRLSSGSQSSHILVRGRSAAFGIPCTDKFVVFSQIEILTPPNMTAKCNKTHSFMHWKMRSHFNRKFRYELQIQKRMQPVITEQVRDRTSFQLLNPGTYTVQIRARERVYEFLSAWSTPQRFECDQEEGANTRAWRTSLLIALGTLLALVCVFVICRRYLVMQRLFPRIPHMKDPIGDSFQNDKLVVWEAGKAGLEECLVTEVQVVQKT

B1: 20D7-CPI (antibody, V domains shown)
VH: EVQLVESGGGLVQPGGSLRLSCAASGYSITDFLMYWVRQAPGKGLEWVAWIDPEDGETKYAQKFQSKARFTISRDNAKNSLYLQMNSLRAEDTAVYYCARWGYITDYFYGGFTYWGRGTLVTVSS
VL: DIQMTQSPPVLSASVGDRVTLSCKASQNINKNLDWYQQKHGEAPKLLIYHTNTLQMGIPSRFSGSGSGTDYALTITSLQPEDVATYYCYQYNSGPTFGAGTKLELRR
modifications: CPI agent through an AcLysValCitPABC linker, DAR ~2; site not stated for this antibody
With B1, the “IC50 (ng/mL), 2D in vitro cytotoxicity (CelltiterGlo, 96 hours), MOLM13 cells (CD123 +++)” value (shortened to “IC50 (ng/mL), 2D … MOLM13 cells (CD123 +++)”) in experiment [1] was found to be 0.32 ng/mL.

B2: h18G3-AcLysValCitPABC-DMAE-CO_CPI-000638314 (antibody, IgG1, V domains shown)
VH: EVQLVESGGGLVQPGGSLRLSCAASGFSLTSGDISWVRQAPGKGLEWVAVIWSGGGTNYGSRLMSRFTISRDNAKNSLYLQMNSLRAEDTAVYYCARDWGNFYFDYWGQGTLVTVSS
VL: DIQMTQSPSSLSASVGDRVTITCKSSQSLLSSGTRKNYLAWYQQKPGKAPKLLIYWASTRQSGVPSRFSGSGSGTDFTLTISSLQPEDFATYYCSQSYNLYTFGQGTKLEIKR
modifications: AcLysValCitPABC-DMAE-CO_CPI linker-agent conjugated site-specifically at Q296 (LLQG tag), DAR ~2
Regarding B2, in experiment [1], the “IC50 (ng/mL), 2D in vitro cytotoxicity (CelltiterGlo, 96 hours), Granta519 cells (CD123 ++)” value stood at 0.38 ng/mL; the “IC50 (ng/mL), 2D in vitro cytotoxicity (CelltiterGlo, 96 hours), JVM3 cells (CD123 ++)” value came out at 0.69 ng/mL; the “IC50 (ng/mL), 2D … MOLM13 cells (CD123 +++)” value worked out at 0.25 ng/mL; the “IC50 (ng/mL), 2D in vitro cytotoxicity (CelltiterGlo, 96 hours), MV411 cells (CD123 +++)” value is 0.41 ng/mL. Also, in experiment [1], the “IC50 (ng/mL), 2D in vitro cytotoxicity (CelltiterGlo, 96 hours), NB4 cells (CD123 +)” value came to 63.9 ng/mL and the “IC50 (ng/mL), 2D in vitro cytotoxicity (CelltiterGlo, 96 hours), OCI-AML3 cells (CD123 +)” value worked out at 2.65 ng/mL. Further, in experiment [2], the “IC50 (ng/mL), cytotoxicity in MOLM13 cells, IL-3 at 0 ng/ml” value amounted to 0.14 ng/mL; the “IC50 (ng/mL), cytotoxicity in MOLM13 cells, IL-3 at 0.3 ng/ml” value turned out to be 0.12 ng/mL; the “IC50 (ng/mL), cytotoxicity in MOLM13 cells, IL-3 at 1 ng/ml” value is 0.14 ng/mL; the “IC50 (ng/mL), cytotoxicity in MV4-11 cells, IL-3 at 0 ng/ml” value is 1.07 ng/mL. Also, in experiment [2], the “IC50 (ng/mL), cytotoxicity in MV4-11 cells, IL-3 at 0.3 ng/ml” value worked out at 1.05 ng/mL and the “IC50 (ng/mL), cytotoxicity in MV4-11 cells, IL-3 at 1 ng/ml” value is 0.21 ng/mL.

B3: 18G3 conjugated to iPr-calicheamicin (antibody, V domains shown)
VH: EVQLVESGGGLVQPGGSLRLSCAASGFSLTSGDISWVRQAPGKGLEWVAVIWSGGGTNYGSRLMSRFTISRDNAKNSLYLQMNSLRAEDTAVYYCARDWGNFYFDYWGQGTLVTVSS
VL: DIQMTQSPSSLSASVGDRVTITCKSSQSLLSSGTRKNYLAWYQQKPGKAPKLLIYWASTRQSGVPSRFSGSGSGTDFTLTISSLQPEDFATYYCSQSYNLYTFGQGTKLEIKR
modifications: iPr-calicheamicin conjugated; linker and site not stated
Consider B3, for which, in experiment [3], the “IC50 (ng/mL), in vitro cytotoxicity, MOLM13 cells (CD123 +++)” value stood at 0.0508 ng/mL and the “IC50 (ng/mL), in vitro cytotoxicity, MV4-11 cells (CD123 +++)” value turned out to be 0.125 ng/mL.

B4: 18G3 conjugated to CTI (glucuronide) (antibody, V domains shown)
VH: EVQLVESGGGLVQPGGSLRLSCAASGFSLTSGDISWVRQAPGKGLEWVAVIWSGGGTNYGSRLMSRFTISRDNAKNSLYLQMNSLRAEDTAVYYCARDWGNFYFDYWGQGTLVTVSS
VL: DIQMTQSPSSLSASVGDRVTITCKSSQSLLSSGTRKNYLAWYQQKPGKAPKLLIYWASTRQSGVPSRFSGSGSGTDFTLTISSLQPEDFATYYCSQSYNLYTFGQGTKLEIKR
modifications: CTI (glucuronide) agent conjugated; linker and site not stated
For the molecule B4, in experiment [4], the “IC50 (ng/mL), in vitro cytotoxicity, Granta519 cells (CD123 ++)” value stood at 0.26 ng/mL; the “IC50 (ng/mL), in vitro cytotoxicity, JVM3 cells (CD123 ++)” value worked out at 1.3 ng/mL; the “IC50 (ng/mL), in vitro cytotoxicity, MOLM13 cells (CD123 +++)” value is 0.33 ng/mL; the “IC50 (ng/mL), in vitro cytotoxicity, MV411 cells (CD123 +++)” value was 0.51 ng/mL. In experiment [4], the “IC50 (ng/mL), in vitro cytotoxicity, NB4 cells (CD123 +)” value is 38.6 ng/mL and the “IC50 (ng/mL), in vitro cytotoxicity, OCI-AML3 cells (CD123 +)” value turned out to be 2.58 ng/mL.

B5: 3D1-CPI (antibody, V domains shown)
VH: EVQLQQSGPELVKPGASVKMSCKASGYTFSDYFMKWVKQSHGKRLEWIGDINPNNGETFYNHHFKGKATLTIDKSSSTAYMQLNSLTSDDSAVYYCARPRRGNAMDFWGQGTSVTVSS
VL: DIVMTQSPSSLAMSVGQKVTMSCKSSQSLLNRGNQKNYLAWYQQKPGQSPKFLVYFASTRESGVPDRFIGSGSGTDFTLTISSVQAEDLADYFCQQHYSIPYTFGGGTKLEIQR
modifications: CPI agent through an AcLysValCitPABC linker, DAR ~2; site not stated for this antibody
As to B5, in experiment [1], the “IC50 (ng/mL), 2D … MOLM13 cells (CD123 +++)” value was determined as 0.33 ng/mL.

B6: 16D6-CPI (antibody, V domains shown)
VH: QVQLKESGPGLVAPSQSLSITCTVSGFSLTNFDISWIRQPPGKGLEWLGVMWTGGGTNYNSAFMSRLSISRDISKSQVSLKMSSLQTDDTAIYYCVRGDTYFFAMDYWGQGTSVTVSS
VL: DIVMSQSPSSLAVSAGEKVTMSCKSSQSLLSSGTRKNFLSWYQQKTGQSPKLLIYWASTRGSGVPDRFTGSGSGTDFTLTISSVQTEDLAVYYCKQSYNLYTFGGGTKLEIKR
modifications: CPI agent through an AcLysValCitPABC linker, DAR ~2; site not stated for this antibody
Take B6: in experiment [1], the “IC50 (ng/mL), 2D in vitro cytotoxicity (CelltiterGlo, 96 hours), JVM3 cells (CD123 ++)” value came out at 0.59 ng/mL; the “IC50 (ng/mL), 2D … MOLM13 cells (CD123 +++)” value is 0.22 ng/mL; the “IC50 (ng/mL), 2D in vitro cytotoxicity (CelltiterGlo, 96 hours), MV411 cells (CD123 +++)” value amounted to 0.4 ng/mL. In experiment [2], the “IC50 (ng/mL), cytotoxicity in MOLM13 cells, IL-3 at 0 ng/ml” value is 0.23 ng/mL; the “IC50 (ng/mL), cytotoxicity in MOLM13 cells, IL-3 at 0.3 ng/ml” value came to 0.23 ng/mL; the “IC50 (ng/mL), cytotoxicity in MOLM13 cells, IL-3 at 1 ng/ml” value was determined as 0.19 ng/mL; the “IC50 (ng/mL), cytotoxicity in MV4-11 cells, IL-3 at 0 ng/ml” value stood at 1.25 ng/mL. For the same molecule, in experiment [2], the “IC50 (ng/mL), cytotoxicity in MV4-11 cells, IL-3 at 0.3 ng/ml” value came out at 1.13 ng/mL and the “IC50 (ng/mL), cytotoxicity in MV4-11 cells, IL-3 at 1 ng/ml” value was determined as 1.13 ng/mL.
